± gives the standard deviation of the averaged measurements.
test system: ATP; experiment: switch fluorescence ratio, 500 uM ATP over buffer (Cy3 cluster intensity, sum of 5 cycles each) (fold (ratio)); higher = stronger signal-on switching upon ATP binding; sequences stand for … in TCGTCGGCAGCGTCAGATGTGTATAAGAGACAGTTTTTTTTTTTTTTTTTTTTTTTTT…TC; details: aptamer strand: ATP DNA aptamer (quencher-CACCTGGGGGAGTATTGCGGAGGAAGG + anchor), 100 nM annealed; ATP concentration: 500 uM
How it was run: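 Imaging in selection buffer was followed by imaging after 15 min with 500 uM ATP at 22 °C, for Cy3-labelled switching-strand clusters annealed to 100 nM quencher-labelled ATP aptamer on a modified Illumina MiSeq flow-cell. Five of these buffer/ATP cycles ran, separated by NaOH stripping and re-annealing. The fluorescence ratio per cluster is summed target-cycle over summed buffer-cycle Cy3 intensity, averaged per switch-domain sequence; clusters outside 100-1000 RFU were removed.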
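Also: ATP exposure 15 min at 22 °C before imaging.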

In order of rising switch fluorescence ratio:
1. TTCGGGGCGG  0.934 ± 0.071
2. TTGATGGTCA  0.943 ± 0.041
3. TTCGATTCGA  0.961 ± 0.011
4. TTCGGGTCGC  0.963 ± 0.049
5. TTGATGCGTG  0.9661 ± 0.0063
6. TTCGGGGGTA  0.97 ± 0.023
7. TTCTTAGTGT  0.97 ± 0.027
8. TTCGGCGTTG  0.972 ± 0.02
9. TTCGGGAGGG  0.973 ± 0.029
10. TTCGGACCCG  0.976 ± 0.01
11. TTGAGCCTGT  0.977 ± 0.028
12. TTCTGATGGA  0.978 ± 0.036
13. TTGCCATGTT  0.978 ± 0.036
14. TTCCTAAAAG  0.979 ± 0.011
15. TTCTTTCGTC  0.979 ± 0.021
16. TTGAGGGGTT  0.979 ± 0.0086
17. TTCGGATAGT  0.98 ± 0.011
18. TTCGTTAGAG  0.9796 ± 0.0014
19. TTCGATTTTT  0.981 ± 0.048
20. TTGAGAGGGG  0.981 ± 0.021
21. TTGCAAGTTT  0.9811 ± 0.00083
22. TTGAGTATTT  0.98182 ± 0.00089
23. TTGATTGTTG  0.982 ± 0.013
24. TTCGTCATTT  0.983 ± 0.034
25. TTCTTTTATC  0.983 ± 0.03
26. TTCTTAATGC  0.985 ± 0.024
27. TTCGTTGGGT  0.986 ± 0.016
28. TTGAGAGGGT  0.9859 ± 0.0089
29. TTCGATGGTG  0.987 ± 0.0044
30. TTCGATTGTG  0.9867 ± 0.0088
31. TTCTTTTGGG  0.987 ± 0.039
32. TTGAGTTTTT  0.987 ± 0.024
33. TTGAAGTCGT  0.988 ± 0.02
34. TTCGGGCATT  0.989 ± 0.046
35. TTCTTGGGTT  0.989 ± 0.031
36. TTGCATCGGG  0.9891 ± 0.0034
37. TTCTCTAGGG  0.99 ± 0.0049
38. TTCGAGTGCC  0.991 ± 0.013
39. TTCGGAACGG  0.991 ± 0.027
40. TTCTCGGGGA  0.9908 ± 0.0097
41. TTCTTTAAAC  0.992 ± 0.033
42. TTGAGGGATG  0.992 ± 0.013
43. TTGAGGTGCA  0.992 ± 0.025
44. TTCCATCGGG  0.993 ± 0.033
45. TTGAGCTTAT  0.993 ± 0.018
46. TTGAGGCGGG  0.993 ± 0.045
47. TTGCGATTTT  0.993 ± 0.028
48. TTCCTGGGGA  0.9943 ± 0.0077
49. TTCGGCTTGA  0.994 ± 0.028
50. TTCGTGTCCC  0.994 ± 0.019
51. TTCTGGATTA  0.994 ± 0.036
52. TTGAGGTTGA  0.994 ± 0.029
53. TTCGAAGGCT  0.995 ± 0.017
54. TTCGACGAGG  0.996 ± 0.022
55. TTCTTTTAGG  0.996 ± 0.03
56. TTGCGGACCA  0.996 ± 0.043
57. TTCCTGGTCA  0.997 ± 0.012
58. TTCTATGTTA  0.997 ± 0.014
59. TTGATGTAAA  0.997 ± 0.033
60. TTGAATAGTT  0.998 ± 0.017
61. TTGCAGGGGG  0.998 ± 0.027
62. TTGCCGGGGC  0.998 ± 0.017
63. TTCGTTTTGC  0.999 ± 0.035
64. TTCTGGGGGT  0.999 ± 0.051
65. TTGATTTTCA  0.999 ± 0.015
66. TTCCAGTTTT  1 ± 0.04
67. TTCCTGGGTT  1.002 ± 0.0097
68. TTCGAAGATT  1 ± 0.051
69. TTCGGCGGGC  1 ± 0.027
70. TTCGGTATAG  1 ± 0.025
71. TTCGTGTGGT  1 ± 0.019
72. TTCTAGTGGG  1 ± 0.033
73. TTGAAATTTG  1 ± 0.011
74. TTGAGGGAGG  1 ± 0.034
75. TTGAGTGAAT  1 ± 0.042
76. TTGCAAAAAT  1 ± 0.046
77. TTGCGAGGGC  1 ± 0.028
78. TTGCGGGGGT  1 ± 0.054
79. TTCCATCCAT  1.0067 ± 0.00069
80. TTCCATTAGT  1.01 ± 0.035
81. TTCCGGATGG  1.01 ± 0.021
82. TTCGCGTAGA  1.01 ± 0.014
83. TTCGGGAGAA  1.01 ± 0.052
84. TTCGGGTTAT  1.01 ± 0.049
85. TTCGTACGTC  1.01 ± 0.029
86. TTCGTTGGAC  1.01 ± 0.012
87. TTCTACCAGC  1.01 ± 0.011
88. TTCTATCGTT  1.01 ± 0.031
89. TTCTCCTTTT  1.01 ± 0.021
90. TTCTGAAAAC  1.0127 ± 0.00023
91. TTCTGGGTTT  1.01 ± 0.025
92. TTCTGTGGGG  1.01 ± 0.017
93. TTCTTGTTTT  1.01 ± 0.016
94. TTGAAAGTTT  1.01 ± 0.026
95. TTGAAATCGA  1.01 ± 0.03
96. TTGAATAAAA  1.005 ± 0.0096
97. TTGAATATGG  1.01 ± 0.021
98. TTGACTAT  1.005 ± 0.0027
99. TTGAGGGGTA  1.01 ± 0.021
100. TTGAGTGTTA  1.01 ± 0.011
101. TTGATAGGTC  1.01 ± 0.04
102. TTGATCTT  1.008 ± 0.0042
103. TTGATTAGAT  1.014 ± 0.0016
104. TTGCACGGGC  1.007 ± 0.0052
105. TTGCATGAGG  1.01 ± 0.078
106. TTGCATGGAA  1.01 ± 0.0049
107. TTGCCCGAA  1.01 ± 0.043
108. TTGCGGGGG  1.01 ± 0.017
109. TTCCAGATTT  1.02 ± 0.062
110. TTCCATGCGG  1.02 ± 0.037
111. TTCGATGCGG  1.02 ± 0.036
112. TTCGCCGGTT  1.02 ± 0.0021
113. TTCGGGGGGT  1.02 ± 0.051
114. TTCGGGTGGA  1.02 ± 0.046
115. TTCGGTGACC  1.02 ± 0.014
116. TTCGTGACCC  1.019 ± 0.0043
117. TTCTAGGGCA  1.02 ± 0.038
118. TTCTGAGTCT  1.02 ± 0.041
119. TTCTGGTGCA  1.02 ± 0.047
120. TTCTTAAAAG  1.02 ± 0.028
121. TTCTTTATCG  1.02 ± 0.073
122. TTCTTTGGGA  1.02 ± 0.028
123. TTGAACCTTT  1.02 ± 0.012
124. TTGACCTGTG  1.02 ± 0.013
125. TTGACTTTGA  1.02 ± 0.016
126. TTGAGTGTTT  1.02 ± 0.017
127. TTGAGTTGTT  1.02 ± 0.082
128. TTGATCTTAG  1.02 ± 0.018
129. TTGCCGTGTT  1.02 ± 0.016
130. TTGCGACGGT  1.02 ± 0.023
131. TTCCGGGACG  1.027 ± 0.0033
132. TTCCTAATT  1.03 ± 0.033
133. TTCGGGAATA  1.03 ± 0.022
134. TTCGGTAAAT  1.03 ± 0.033
135. TTCTATTTTT  1.03 ± 0.024
136. TTCTTCGTTA  1.03 ± 0.019
137. TTCTTTAGAA  1.03 ± 0.046
138. TTGAAAGTAT  1.03 ± 0.048
139. TTGAAGTGGG  1.03 ± 0.014
140. TTGAGGACGG  1.03 ± 0.016
141. TTGATGGGGT  1.03 ± 0.1
142. TTGATTGTGG  1.03 ± 0.059
143. TTGCCTGTG  1.03 ± 0.033
144. TTGCGCCTTT  1.03 ± 0.0099
145. TTCCAGGTTC  1.04 ± 0.012
146. TTCCCATTTA  1.04 ± 0.02
147. TTCCGGAAGT  1.04 ± 0.04
148. TTCGGGTTTC  1.04 ± 0.058
149. TTCGTGCGAT  1.04 ± 0.013
150. TTCGTGTTTT  1.04 ± 0.059
151. TTCTATACAT  1.04 ± 0.054
152. TTCTCGGGGG  1.04 ± 0.043
153. TTCTCGTCTT  1.04 ± 0.036
154. TTGAGGCCGG  1.038 ± 0.0038
155. TTGATACCTA  1.04 ± 0.038
156. TTGATCTTGG  1.04 ± 0.013
157. TTGCCCCGGC  1.04 ± 0.016
158. TTGAGGGGGT  1.05 ± 0.16
159. TTGAGGTTCG  1.05 ± 0.14
160. TTGAGTCCGT  1.05 ± 0.075
161. TTGATTGGTC  1.05 ± 0.019
162. TTGCAGCTTA  1.05 ± 0.035
163. TTCGATGGAA  1.06 ± 0.0038
164. TTCGTATTTC  1.06 ± 0.083
165. TTCGTGCGGC  1.06 ± 0.042
166. TTGATTTCGA  1.06 ± 0.019
167. TTCCGGGTAT  1.07 ± 0.03
168. TTCGTAATCG  1.07 ± 0.093
169. TTCTGAGGTG  1.074 ± 0.0026
170. TTGACGAATC  1.067 ± 0.002
171. TTCCTTCTTT  1.08 ± 0.061
172. TTCGGGTAAT  1.08 ± 0.11
173. TTCTCGCCAA  1.08 ± 0.022
174. TTGAATCGAC  1.08 ± 0.042
175. TTCCGTCTTC  1.09 ± 0.11
176. TTCGGAGTCA  1.1 ± 0.019
177. TTGAATACAC  1.11 ± 0.17
178. TTGCAGGTTT  1.11 ± 0.18
179. TTCTAACCCC  1.12 ± 0.012
180. TTCTGTTTCC  1.12 ± 0.13
181. TTCGAATATT  1.13 ± 0.26
182. TTCGTACAT  1.13 ± 0.22
183. TTGAAAGTGA  1.13 ± 0.25
184. TTCCCGTTGA  1.14 ± 0.027
185. TTCTGGCTTT  1.16 ± 0.25
186. TTCGGACCTT  1.21 ± 0.021
187. TTCGCAACGG  1.22 ± 0.34
188. TTGCACTAAC  1.22 ± 0.05
189. TTGAGGTGGG  1.23 ± 0.41
190. TTGCACACGC  1.26 ± 0.08
191. TTCCTGCTTG  1.36 ± 0.6
192. TTGAGTCGGA  1.42 ± 0.7
193. TTGCCGCAGC  1.49 ± 0.054
194. TTGCGCAATT  1.51 ± 0.47
195. TTCCATCGCC  1.53 ± 0.14
196. TTGAGGCAGT  1.54 ± 0.55
197. TTCTCGGCTA  1.56 ± 0.61
198. TTCCGGGTGT  1.66 ± 0.75
199. TTCCCAGTGT  1.87 ± 0.053
200. TTCCCTAAGG  2.35 ± 1.7
